Experimental data taken from article PMC11147780, “Vaccination induces broadly neutralizing antibody precursors to HIV gp41” (Nature Immunology, 2024).
Changes are numbered by the printed parent chain.

B1: MPER18_d21_45.1_v55_m3_C07 (antibody, V domains shown)
VH: QVQLKQSGPGLVQPSQSLSITCTVSGFSLTNYDIHWVRQSPGKGLEWLGVIWSGGSTDYNAGFISRLSISKDNSKSQVFFKMNSLQGDDTAIYYCARGGGYYEDYVMDYWGQGTSVTVSS
VL: DIQMTQSPASLSASVGETVTITCRASGNIHNYLAWYQQKQGESPHLLVYNAKTLADGVPSRFSGSDSGTQYSLKINSLQPEDFGSYYCQHFWTTPYTFGGGTKLEIK
B2: MPER18_d21_45.1_v55_m3_D12 (antibody, V domains shown)
VH: QVQLQQSGAELMKPGASVILSCKATGYTFTGYWIEWVKLRPGHGLEWIGEILPGNSSTKYNEKFKGKATFTADTSSNTANMQLSSLTTEDSAIYYCARRWNDYDGVAWFGYWGQGTLVSVSA
VL: B1 VL with E42K, H45Q, N50S, D66G, T93S
B3: MPER18_d21_45.1_v55_m3_F02 (antibody, V domains shown)
VH: QVQLKQSGPGLVQPSQSLSITCTVSGFSLTSNGVHWVRQSPGKGLDWLGVIWTGGSTDYNTTFLSRLSISKDNSKSQVFFKMNSLQADDTAIYYCARGGGYYEDYAMDYWGQGTSVTVSS
VL: B1 VL with E42K, H45Q, D66G, Y87C, T93S, K107R
B4: MPER18_d21_45.1_v55_m3_D01 (antibody, V domains shown)
VH: B1 VH with I34V, E46A, G62T, S76T, G87A, V106A
VL: NIVLTQSPASLAVSLGQRATISCRASESVDTYGNSFMHWYQLKPGQPPKLLIYLASNLESGVPARFSGSGSRTDFTLTIDPVEADDAATYYCQQNNEDPYTFGGGTELEIQ
B5: MPER18_d21_45.1_v55_m3_F03 (antibody, V domains shown)
VH: EVQLQQSGPVLVKPGPSLKISCKASGFTITDYYMHWVKQTHGKSLAWIGLLYPYNGGTSYNQKFKGKATLTVDTSSSTAYMELNSLTSDDSAVYYCAREGHYDRKGYFDVWGTGTTVTVSS
VL: DIVMTQSHKFMSTSVGDRVSITCKASQDVSTAVAWYQQKPGQSPKLLIYWASTRHTGVPDRFTGSGSGTDYTLIISSVQAEDLALYYCQQHYSIPFTFGSGTKLEIK
B6: NHP-10E8_MPER-GT10v55_W21-01 (antibody, V domains shown)
VH: EVRLVESGGGLVQPGGSLRLSCAASGFTFSDYYMSWVRQAPGKGPEWVGFIRNKANGGTAEYAASVKGRFTISRDDSKSIASLQMNSLKTEDTAVYYCARAPLHYNFWSGYYTDYGLDSWGQGVVVTVSS
VL: DIVMTQSPDSLAVSLGERVTINCKSSQSLLYSSNNKNYLAWYQQKPGQAPKLLIYWASTRESGVPNRFSGSGSGSDFTLTISGLQAEDVAVYYCQQYYSTPHSFGQGTKVEIK
B7: NHP-10E8_MPER-GT10v55_W3-18 (antibody, V domains shown)
VH: EVQLVESGGGLVQPGGSLRLSCAASGFTFSDYAMDWVRQAPGKGLEWVGYIRSKDYGGTAEYAASVKGRLTISRDDSKNTAYLQMNSLKTEDTAVYYCSRGRGYYHFWSGYYTPYNRFDVWGPGVLVTVSS
VL: DVVMTQSPLSLPVTPGQPASISCRSSQSLVHSDGKTYLNWLQQKPGQPPRRLIYQVSNRDSGVPDRFSGSGAGTDFTLKISRVEAEDVGVYYCVQGTNVPWTFGQGTKVEIK
B8: MPER18_d21_45.1_v55_m3_B08 (antibody, V domains shown)
VH: QVQLQQPGAELVKPGASVKLSCKASGYTFTSYWMHWVKQRPGQGLEWIGMIRPNSGSTNYNERFKSKATLTVDKSSSTAYMQLSSLTSGDSAVYYCAKGGTWTMDYWGQGTSVTVSS
VL: DIVMTQSPSSLSVSAGEKVTMICKSSQSLLNSGNQKNYLAWYQQKPGQPPKLLIYGASTRESGVPDRFTGSGSGTDFTLTISSVQAEDLAVYYCQNDHSYPLTFGAGTKLELK
B9: MPER-051 (antibody, V domains shown)
VH: QVQLVESGGGLVKPGGSLRLSCAASGFTFSDYYMSWIRQAPGKGLEWVSYISSSGSTIYYADSVKGRFTISRDNAKNSLYLQMNSLRAEDTAVYYCASLAHTYYDFWSGYYDRYYGMDVWGKGTTVTVSS
VL: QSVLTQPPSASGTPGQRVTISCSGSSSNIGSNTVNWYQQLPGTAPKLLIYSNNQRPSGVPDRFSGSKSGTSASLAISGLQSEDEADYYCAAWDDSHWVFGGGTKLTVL
B10: MPER18_d21_45.2_v55_04 (antibody, V domains shown)
VH: QVQLQESGPGLVKPSETLSLTCTVSGDSISSYYWNWIRQPPGKGLEWIGYFYYYGSTNYNPSLKSRVTISVDTSKNQFSLNLSSVTAADTAVYYCAREPPYYDFWSGLSMGVDTFDIWGQGTMVTVSS
VL: DVVMTQTPLSLPVSLGDQASISCRSSQSLVHSNGNTYLHWYLQKPGQSPKLLIYKVSNRFSGVPDRFSGSGSGTDFTLKISRVEAEDLGVYFCSQSTHVPRTFGGGTKLEIK
B11: MPER18_d21_45.2_v55_22 (antibody, V domains shown)
VH: B10 VH with D27G, N35S, F51I, Y54S, N81K, S106G, S109F, D113G, T114A
VL: DVLMTQTPLSLPVSLGDQASISCRSSQSIVHSNGNTFLEWYLQKPGQSPNLLIYRVSNRLSGVPDRFSGSGSGTDFTLKISRVEAEDLGVYYCFQGSHVPWTFGGGTKLEIK
B12: MPER18_d21_45.2_v55_m15_C05 (antibody, V domains shown)
VH: QVQLQESGPGLVKPSETLSLTCTVSGGSISSYCWSWIRQSPGKGLEWIGYIYYSGSINHNPSLKSRVTISADTSKNQFSLKLSSVTAADTAVYYCAREPPYYDFWSGLSMGVGAFDIWGQGTMVTVSS
VL: B10 VL with V2I, T7S, S32N, K44Q, K55N, V56F
B13: MPER18_d21_45.2_v55_m15_C11 (antibody, V domains shown)
VH: B10 VH with D27G, F51I, Y52F, Y54S, S56T, N81K, L82V, S83R, D113G, T114S
VL: DIVMTQSPLSLPVSLGDQASISCRSSQTIVYSSGYTYLEWYLQKPGQSPKLLIYKVSNRFSGVPDRFSGSGSGTDFTLKISRVEAEDLGVYFCFQGSHVPWTFGGGTKLEIK
B14: MPER18_d21_45.2_v55_m5_D04 (antibody, V domains shown)
VH: B12 VH with C33Y, S40P, Y50H, I57T, H59Y, S65G, A71V, S83T
VL: B11 VL with N35Y, F37Y, L38V, N50K, R55K, L60F, S68T, E86A, W101Y
B15: MPER18_d21_45.2_v55_12 (antibody, V domains shown)
VH: B10 VH with K13T, G49E, F51M, Y52F, Y54S, N81K, D113G, T114A
VL: B13 VL with T28S, Y31H, S33N, E39D, K44R, F92Y, W101Y
B16: MPER18_d21_45.2_v55_m15_E09 (antibody, V domains shown)
VH: B10 VH with D27G, S31N, N35S, Y54S, S56T, N81K, D113G, T114A
VL: B13 VL with I2V, V3L, S7T, T28S, S33N, F92Y
B17: MPER18_d21_45.2_v55_17 (antibody, V domains shown)
VH: B12 VH with C33F, S40P, Y53N, I57T, H59Y, N60H, A71V
VL: B13 VL with I2V, V3L, S7T, T28S, Y31H, Y35N, F67I, S68G
B18: MPER18_d21_45.2_v55_m15_D04 (antibody, V domains shown)
VH: B12 VH with S31G, C33Y, S40P, I57T, H59Y, A71V, I117F
VL: B11 VL with T7S, F37Y, N50K, R55K, L60F, K79R, W101C
B19: MPER18_d21_45.2_v55_24 (antibody, V domains shown)
VH: B12 VH with C33Y, S40P, I57T, H59Y, A71V, M123L
VL: DVLLTQSPLALPVSLGDQASISCRSSQSIVHSNGYTYLEWYLQKPGQSPKLLVYKVSNRFSGVPDRFSGSGSGTDFTLKISRVETEDLGVYYCFQGSHVPYTFGGGTKLEIK
B20: NHP-10E8_MPER-GT10v55_W21-02 (antibody, V domains shown)
VH: EVQLVESGGGLVQPGGSLRLSCAASGFTFSNYWMSWVRQAPGKGLEWVGFIKNKADGGTAAYAESVKGRFTISRDDSKNTLYLQMNSLKTEDTAVYYCARAGAPYYNFWSGYYESYDAFDFWGQGLRVTVSS
VL: QPVLTQPTSLSASPGASARLTCTLRSGISVGSYRIFWYQQKPGSPPRYLLNYHTDSDKHQGSGVPSRFSGSKDASANAGILLISGLQSEDEADYYCMIWHNNAVLFGGGTRLTV
B21: MPER-052 (antibody, V domains shown)
VH: EVQLVESGGGLVQPGRSLRLSCTASGFTFGDYAMSWVRQAPGKGLEWVGFIRSKAYGGTTEYAASVKGRFTISRDDSKSIAYLQMNSLKTEDTAVYYCTRDLMGYYDFWSGYYRGHYGMDVWGKGTTVTVSS
VL: AIQMTQSPSSLSASVGDRVTITCRASQGIRNDLGWYQQKPGKAPKLLIYAASSLQSGVPSRFSGSGSGTDFTLTISSLQPEDFATYYCLQDYNYPLTFGGGTKVEIK
B22: MPER18_d21_45.2_v55_15 (antibody, V domains shown)
VH: B12 VH with C33S, S40P, Y52S, I57T, H59Y, A71V, N76S, S106N, G107E
VL: B11 VL with T7I, H31Q, S32N, Y41F, N50K, L60F
B23: MPER18_d21_45.2_v55_m15_D07 (antibody, V domains shown)
VH: B12 VH with K13R, C33Y, S40P, I57T, H59Y, A71V, S83N, A96T, G107E, M110L
VL: B13 VL with Y31H, S33N, F92Y
B24: MPER18_d21_45.2_v55_m15_A06 (antibody, V domains shown)
VH: B12 VH with T21A, I29F, Y32S, C33Y, S40P, I57T, H59Y, I69M, A71V
VL: B11 VL with T7S, P12S, I29V, F37Y, K44Q, N50K, R55K, L60F
B25: MPER18_d21_45.2_v55_21 (antibody, V domains shown)
VH: B12 VH with C33Y, S40P, Y52S, I57T, H59Y, A71V, A87T, S106N, G107E
VL: B11 VL with T7I, R24S, H31Q, S32N, Y41F, N50K, L60F
B26: MPER18_d21_45.2_v55_m5_E10 (antibody, V domains shown)
VH: B12 VH with T23S, S31G, C33Y, S40P, Y52F, I57T, H59Y, A71V, S83T
VL: B13 VL with S7T, R24S, T28N, Y31H, S33N, F92Y, W101Y
B27: MPER18_d21_45.2_v55_m15_A04 (antibody, V domains shown)
VH: B12 VH with C33Y, S40P, Y52F, I57T, H59Y, K64R, A71V, D72G, S83N, V112M
VL: B13 VL with V3L, T28S, Y31H, S33N, Y35N, T36S, F92Y, V99I
B28: NHP-10E8_MPER-GT10v55_W3-19 (antibody, V domains shown)
VH: EVQLVESGGGLVQPGGSLRLSCAASGFTFSNYWMSWVRQAPGKGLEWVGFIKNKADGGTAAYAESVKGRFSISRDDSKNTLYLQMNSLKTEDTAVYYCTRDVGRYNFWSGYYSHNRIDVWGPGVLVTVSS
VL: SYELTQPPSVSVSPGQMARITCGGDNLGSKYVHWFQQKPAQAPALVIYDDSDRPSGIPERFSGSKSGNTATLTISGVESGDEADYYCQVWDSGTDHPLFGGGTRLTV

Molecular target: T1, 10E8-GT10.2 epitope scaffold (designed scaffold 10E8-GT10.2 with …, N-linked glycosylation sites added (positions not given))
T1 chain: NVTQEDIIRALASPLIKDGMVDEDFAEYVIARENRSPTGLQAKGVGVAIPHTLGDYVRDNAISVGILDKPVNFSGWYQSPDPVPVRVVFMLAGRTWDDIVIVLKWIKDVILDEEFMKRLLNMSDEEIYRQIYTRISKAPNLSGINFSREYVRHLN

Binder	Kd
B1	985 nM
B2	1250 nM
B3	94.6 nM
B4	3.38 nM
B5	31.2 nM
B6	6750 nM
B7	1.16 nM
B8	245 nM
B9	13000 nM
B10	563 nM
B11	2.87 nM
B12	401 nM
B13	6.91 nM
B14	0.714 nM
B15	0.662 nM
B16	14.8 nM
B17	13.2 nM
B18	21.9 nM
B19	0.249 nM
B20	4560 nM
B21	4100 nM
B22	9.89 nM
B23	2.79 nM
B24	86.1 nM
B25	2.21 nM
B26	0.571 nM
B27	14.1 nM
B28	345 nM
